B1: H2-Kb / F5 (parent)
chain 1: GDSVTQTEGLVTLTEGLPVMLNCTYQSTYSPFLFWYVQHLNEAPKLLLKSFTDNKRPEHQGFHATLHKSSSSFHLQKSSAQLSDSALYYCALSPSNMGYKLTFGTGTSLLVDP
chain 2: EAAVTQSPRNKVAVTGGKVTLSCNQTNNHNNMYWYRQDTGHGLRLIHYSYGAGSTEKGDIPDGYKASRPSQENFSLILELATPSQTSVYFCASGDASEQYFGPGTRLTVL
chain 3: not shown
chain 4: IQKTPQIQVYSRHPPENGKPNILNCYVTQFHPPHIEIQMLKNGKKIPKVEMSDMSFSKDWSFYILAHTEFTPTETDTYACRVKHDSMAEPKTVYWDRDM
chain 5: SIINFEKL
B2: H2-Kb / B6 (parent)
chain 1: GDSVTQTEGLVTVTEGLPVKLNCTYQTTYLTIAFFWYVQYLNEAPQVLLKSSTDNKRTEHQGFHATLHKSSSSFHLQKSSAQLSDSALYYCALSLGNAGAKLTFGGGTRLTVRP
chain 2: EAAVTQSPRNKVTVTGGNVTLSCRQTNSHNYMYWYRQDTGHGLRLIHYSYGAGNLQIGDVPDGYKATRTTQEDFFLLLELASPSQTSLYFCASSDGMISSSYEQYFGPGTRLTVL
chain 3: not shown
chain 4: B1 chain 4
chain 5: SIINFEKL

Variants of: B1
Experiment: % of reporter cells activated (NFAT-GFP), raw
Settings: with F5; scale: % of reporter cells activated
Further: test concentration or dose not given here.

Ratio to parent, by site and new letter:
chain 5 I3: C 0.419 | S 0.348 | Y 0.3 | V 0.487 | N 0.251 | T 0.356 | K 0.345 | L 0.547 | H 0.311 | F 0.3 | W 0.243 | R 0.161 | E 0.517 | P 0.427 | M 0.255 | D 0.255 | Q 0.464 | G 0.292
chain 5 K7: L 3.69 | R 2.89 | Q 1.38 | P 0.322 | I 2.55 | T 1.72 | A 0.903 | N 0.386 | Y 0.423 | V 2.14 | S 0.775 | M 5.55 | E 0.184 | G 0.318 | C 0.588 | D 0.341 | F 2.64 | H 0.61 | W 0.498
chain 5 N4: C 0.232 | D 0.21 | P 0.36 | E 0.21 | F 0.509 | W 0.438 | R 0.191 | H 0.36 | G 0.24 | A 0.262 | K 0.184 | S 0.303 | Y 0.307 | I 0.315 | M 0.431 | V 0.322 | Q 0.15 | L 0.401 | T 0.337
chain 5 S1: R 0.225 | I 0.262 | E 0.33 | F 0.262 | A 0.521 | D 0.288 | W 0.292 | G 0.629 | T 0.573 | N 0.161 | L 0.375 | M 0.281 | P 0.315 | H 0.337 | C 0.296 | Q 0.554 | Y 0.337 | V 0.307 | K 0.326
chain 5 L8: T 0.453 | W 0.292 | H 1.55 | G 0.352 | M 0.427 | F 0.247 | N 0.21 | Q 0.288 | P 0.352 | R 0.345 | S 1.39 | E 0.285 | D 1.91 | V 0.521 | A 0.195 | C 2.82 | Y 0.742 | I 0.858 | K 0.633

Variants of: B2
Experiment: % of reporter cells activated (NFAT-GFP), raw
Parameters: unit not given here
Settings: with B6

Ratio to parent: each site, then its substitutions
chain 5 L8: A 0.53 | N 0.765 | G 1.09 | V 0.403 | K 0.819 | W 0.604 | S 0.53 | R 0.812 | I 0.758 | D 0.456 | C 0.725 | M 0.718 | Q 0.738 | T 0.55 | P 0.671 | E 0.329 | F 0.523 | Y 0.805 | H 0.859
chain 5 S1: C 1.05 | I 0.919 | P 0.953 | L 1.13 | W 1.01 | A 1.1 | K 0.993 | M 0.973 | F 1.18 | V 0.826 | Q 0.926 | T 1.07 | G 1.01 | R 0.611 | H 1.12 | Y 1 | D 1.13 | N 0.872 | E 1.12
chain 5 I3: Y 1.23 | P 1.11 | S 1.15 | A 1.17 | H 1.01 | N 0.913 | F 1.43 | G 1.01 | E 1.03 | R 0.678 | Q 1.06 | T 1.16 | K 0.98 | W 1.19 | D 1.01 | L 1.11 | V 0.886 | M 1.13 | C 1.07
chain 5 K7: F 0.812 | I 0.899 | H 0.926 | E 1.11 | L 0.785 | V 0.872 | Q 1.09 | S 0.644 | W 0.638 | T 0.94 | N 0.664 | D 0.819 | Y 0.738 | M 0.765 | A 0.832 | C 1 | R 0.477 | P 0.758 | G 0.913
chain 5 E6: R 0.711 | V 0.51 | N 1.07 | F 0.792 | G 0.664 | L 0.866 | A 1.21 | I 0.55 | Y 0.685 | M 0.946 | K 0.872 | C 0.879 | Q 0.872 | D 0.792 | W 0.758 | H 0.919 | T 0.859 | P 1 | S 0.852
chain 5 F5: N 0.966 | D 1.25 | C 1.47 | S 0.98 | P 0.973 | W 1.15 | K 1.28 | I 1.09 | M 1 | G 1.17 | E 1.74 | V 1.09 | T 0.993 | Y 1.28 | L 1.08 | H 1.28 | A 1.15 | Q 1.07 | R 0.765
chain 5 I2: R 0.765 | P 1.16 | L 1.08 | T 1.23 | H 1.15 | W 0.926 | A 1.13 | N 1.2 | M 0.98 | G 0.966 | C 1.18 | V 0.987 | F 1.01 | Q 0.886 | K 1.08 | D 1.07 | S 0.987 | E 0.879 | Y 1.07
chain 5 N4: H 0.973 | V 0.893 | G 0.752 | R 1 | D 1.29 | W 0.832 | Q 0.993 | Y 0.913 | A 1.17 | I 1.05 | L 2.7 | F 1.87 | M 2.76 | K 0.926 | P 1.13 | S 1.03 | C 1.25 | T 1.1 | E 0.913
